The Human Domainome abundance scans (Beltran et al. 2025)

B1: POU domain, class 3, transcription factor 3, residues 408 to 463; numbered along this chain, P20264 (parent)
chain: KKRTSIEVSVKGALESHFLKCPKPSAQEITNLADSLQLEKEVVRVWFCNRRQKEKR

Variants of: B1
Test: abundance fitness (aPCA) (normalised: wild type 0, dead -1); higher = more abundant; growth selection in yeast, the domain comes from the species named
Settings: Homo sapiens

Abundance fitness: each site, then its substitutions
A33: N -0.941, Y -0.836, W -0.878, R -0.989, D -0.863, C -0.515, Q -0.931, I -0.864, G -0.623, S -0.052, V -0.955, T -0.939, L -0.889, H -0.513, P -0.909, M -0.823, F -0.941, K -0.981, E -0.964
N49: A -0.142, R -0.278, D -0.177, V -0.152, K -0.276, H -0.034, C -0.202, Y -0.381, E 0.041, W -0.295, G -0.279, T -0.097, S -0.098, Q 0.028, P -0.881, M -0.274, I -0.151, L -0.357
Q37: P -0.671, E -0.042, C -0.156, A 0.013, L -0.188, G 0.013, N -0.037, F -0.3, S -0.054, H -0.034, R -0.072, D 0, Y -0.342, W -0.374, T -0.257, I -0.453
E41: Y -0.625, V -0.884, W -0.3, D 0.037, N -0.318, Q -0.414, M -0.534, R -0.352, T -0.308, G -0.305, C -0.54, F -1.1, A -0.344, P -0.933, S -0.243, H -0.196
K53: N -0.248, S 0.068, E -0.013, I -0.121, Q -0.041, D 0.196, R -0.044, T -0.067, A 0.076, Y -0.288, P -0.6, L 0.032, M -0.167, H -0.194, G -0.212, C -0.152, V -0.03, F -0.156
L36: V -0.522, H -0.434, S -0.866, F -0.177, Y -0.313, Q -0.812, R -0.955, M -0.166, G -0.929, I -0.377, P -1.03, D -1.02, N -0.869, A -0.906, C -0.517, W -0.565
S35: P -0.76, M -0.133, F -0.177, L -0.083, C -0.079, T -0.07, D -0.158, G -0.194, K 0.162, A -0.019, I -0.122, Q -0.04, R 0.117, H -0.048, W -0.228, N -0.078, E -0.032
R51: I -0.207, P -0.608, V -0.222, G -0.156, C -0.345, N -0.175, F -0.385, A -0.105, Q -0.164, E -0.126, Y 0.243, K -0.534, L -0.005, W 0.018, M 0.031, H -0.361
L32: G -0.88, Q -0.923, P -0.935, T -0.78, D -1.03, W -0.967, S -0.95, E -0.782, F -0.556, I 0.187, C -1.07, H -0.652, A -0.92, N -0.897, R -0.758, V -0.245, K -1.06
Q52: V -0.112, L -0.131, G -0.146, S 0.014, N -0.17, K -0.112, M -0.194, I -0.186, F -0.205, D 0.034, W -0.185, C -0.126, Y -0.257, R -0.138, P -0.705, A 0.041, T -0.227, H -0.113, E 0.057
K40: G -0.056, I 0.048, L -0.103, T -0.076, E 0.077, R -0.06, D -0.028, C -0.038, S 0.016, Q 0.122, N -0.118, H -0.136, M -0.336, W -0.073
C48: K -0.074, I 0.045, A -0.12, G -0.109, S 0.045, M 0.026, R 0.035, Y 0.068, L -0.047, Q 0.131, P -0.657, W -0.113, N 0.211, D -0.029, E 0.069, V 0.068, T 0.032
V42: H -0.34, A 0.003, M 0.084, E 0.032, C -0.172, P -0.556, Y -0.02, R -0.224, K -0.333, I -0.107, F -0.056, Q -0.016, N -0.586, G -0.339, W -0.108, D -0.014, L -0.091, S -0.094
N31: S -0.033, Y -0.009
R50: V -0.914, L -0.739, W -0.883, Q -0.275, T -0.883, N -0.919, C -0.75, A -0.416, Y -0.889, K -0.364, E -0.538, I -0.809, P -0.853, F -0.875, M -0.497, H -0.668
R44: S -0.55, E 0.213, V -0.224, W -0.377, G -0.165
V45: G -0.058, C -0.177, T -0.028, K -0.024, H 0.103, W -0.162, L -0.042, F -0.211, Y -0.28, N -0.206, E 0.034, M -0.06, R -0.109, S 0.032, Q 0.052, D 0.098
E39: W -0.89, R -0.327, Q -0.322, I -0.919, S -0.055, M -0.428, Y -0.927, H -0.224, A -0.153, P -0.116, L -0.719, C -0.109, G -0.257, F -0.948, T -0.074, K -0.258, N 0.013, D 0.124
V43: S -0.926, Q -0.88, M -0.863, E -0.792, G -0.967, C -0.714, P -0.818, F -1.02, N -0.493, D -0.972, W -0.994, L -0.382, I -0.341, T -0.595, R -0.931, H -0.673
W46: S -0.422, R -0.248
D34: N 0.143
F47: M -0.144, D -0.295, R -1.07, L -0.461, S -0.442
E54: G -0.234, N -0.474, C -0.366, D 0.058, H -0.432, L -0.365, P -0.543, S -0.365, M -0.148, I -0.748, Q -0.241, K -0.658, F -0.598, A -0.185, R -0.485
T30: W -0.327, Y -0.337, V -0.1
L38: Q -0.605, H -0.735, C -0.387, G -0.943, R -0.889, P -0.951, T -0.18, Y -0.982, K -0.895, I -0.048, F -0.91, A -0.693, M -0.13, S -0.699
